B1: MJ0366 from Methanocaldococcus jannaschii, wild type (natural protein, UniProt Q57812 1-92, looked up)
chain: MPLVGFMKEKKRATFYLYKNIDGRKLRYLLHKLENVENVDIDTLRRAIEAEKKYKRSITLTEEEEVIIQRLGKSANLLLNCELVKLDEGERA
notes: MJ0366, Methanocaldococcus jannaschii, knotted protein of 92 residues; If it was, ENLYFQ would remain at the C-terminus; also called wild type protein
B2: MJ0366 construct K19C/K73C in the background of C81A (natural protein, Methanocaldococcus jannaschii, UniProt Q57812 1-92, looked up)
chain: MPLVGFMKEKKRATFYLYCNIDGRKLRYLLHKLENVENVDIDTLRRAIEAEKKYKRSITLTEEEEVIIQRLGCSANLLLNAELVKLDEGERA
notes: MJ0366, Methanocaldococcus jannaschii, 92 residues; double cysteine mutant with C81A; A TEV site ENLYFQG stands between the C-terminus and the His tag; also called F19C/K73C (as printed once in the results)
B3: MJ0366 construct F6C/G89C in the background of C81A (natural protein, Methanocaldococcus jannaschii, UniProt Q57812 1-92, looked up)
chain: MPLVGCMKEKKRATFYLYKNIDGRKLRYLLHKLENVENVDIDTLRRAIEAEKKYKRSITLTEEEEVIIQRLGKSANLLLNAELVKLDECERA
notes: MJ0366, Methanocaldococcus jannaschii, 92 residues; double cysteine mutant with C81A; A TEV site ENLYFQG stands between the C-terminus and the His tag; also called K6C/K89C (as printed once in the discussion)
B4: MJ0366 construct F6C/K73C in the background of C81A (natural protein, Methanocaldococcus jannaschii, UniProt Q57812 1-92, looked up)
chain: MPLVGCMKEKKRATFYLYKNIDGRKLRYLLHKLENVENVDIDTLRRAIEAEKKYKRSITLTEEEEVIIQRLGCSANLLLNAELVKLDEGERA
notes: MJ0366, Methanocaldococcus jannaschii, 92 residues; double cysteine mutant with C81A; A TEV site ENLYFQG stands between the C-terminus and the His tag

Molecular target: the molecule itself
Experiment: SEC; size exclusion chromatography on a Superdex S75 column (GE Healthcare); dimeric state in solution

Stoichiometry N, 2:
B1
B2
B3
B4
